# Measurements: patent publication US20100196385A1 (AstraZeneca / MedImmune, published 2010)
# Experiments:
# full length human DLL4 [1] = biological target: T1, full length human DLL4 (human, UniProt Q9NR61 27-685); assay: FACS binding, HEK293 cells with human DLL4
# T1 construct: whole, on cells; also called native DLL4 expressed in HEK293 cells
# Experimental: (§1) The activity of the mutated antibodies was assessed in two ways: firstly, the ability of the antibodies to block the binding of soluble Notch1/Fc to full length human DLL4 stably expressed in HEK293 cells as described in Example 3 was determined and, secondly, the binding of the antibodies to the same cell line used in the receptor-ligand competition studies was determined. For the binding studies, HEK293 cells stably overexpressing human DLL4 were resuspended in PBS containing 2% FCS at a concentration of 50,000 cells/well and incubated with titrations of antibody (final concentrations 0.01-10 μg/ml) for 1 h at 4° C. The cells were then washed and incubated with 0.31 μg/ml anti-human IgG-Fc-FITC (BD Pharmingen, cat#555786) for 30 minutes at 4° C. Bound […] was detected using FACS analysis. Results of these studies are summarized in Table 23, which show the effects of specific mutations to sequences of 9G8 and 2H10 on the ability of the antibodies to compete with Notch1 for binding to human DLL4 or to bind to human DLL4 relative to unmutated antibodies.
# full length human DLL4 [2] = biological target: T1, full length human DLL4; assay: FACS competition vs Notch1/Fc, HEK293 cells with human DLL4
# Experimental: (§2) Further experiments were performed on selected antibodies using HEK293 cells that were stably transfected with either human, mouse or cynomolgus monkey DLL4 using retroviral constructs. In these experiments, anti-DLL4 antibodies (final concentration: 10-0.01 μg/ml) diluted in PBS containing 2% FCS were added to DLL4-expressing HEK 293 cells (50000 cells/well diluted in PBS containing 2% FCS) and incubated for 1 h at 4° C. Subsequently, Alexa-647 labeled human, rat or APC labeled mouse Notch1/Fc (e.g. R&D Systems, catalog #3647-TK-050, 1057-TK-050, 5267-TK-050, respectively) was added at a final concentration of 0.01-0.5 μg/ml and plates were incubated for a further 2 h at 4° C. prior to washing and reading on a FACSCalibur instrument.
# as §1
# [3] = biological target: T2, human soluble DLL4 (R&D systems catalog #1056-D4-050) (human, UniProt Q9NR61 27-524); assay: Biacore T100, antibody immobilised, soluble human DLL4 as analyte
# T2 construct: Catalog number as printed; perhaps the same product as #1506-D4; also called antigen DLL4
# Experimental: For Biacore analysis, each purified anti-DLL4 antibody was immobilized on a CM5 sensor chip within a T100 using standard amine coupling. Immobilization levels were kept below 200 RU. The concentration of DLL4 was determined by UV-VIS spectroscopy using a molar absorptivity at 280 nm of 110, 440 M⁻¹cm⁻¹, which was calculated from the sequence of the protein using a method developed by Pace et al. (G. R. Grimsley and C. N. Pace (2003) in Current Protocols in Protein Science (John Wiley & Sons, Inc.), 3.1.1-3.1.9). The antigen DLL4 (R&D systems; human catalog #1056-D4-050 or mouse, catalog #1389-D4-050) was diluted to a starting concentration of 32-64 nM and tested in a 3-fold dilution series in triplicate. The running buffer contained HBS-P with 0.1 mg/ml BSA and binding responses were collected at 23° C. Bound complexes were regenerated with a 15 s pulse of 10 mM of sodium hydroxide. The response data were globally fitted with a simple 1:1 interaction model and Table 20 summarizes the kₐ, kd and KD estimates obtained for the anti-DLL4 antibodies when binding to human soluble DLL4 was assessed.
# full length human DLL4 [4] = biological target: T1, full length human DLL4; assay: FACS competition vs human Notch1/Fc, HEK293 cells with human DLL4
# Experimental: as §2
# full length human DLL4 [5] = biological target: T1, full length human DLL4; assay: FACS titration, HEK293 cells with human DLL4
# Experimental: The binding affinities of the purified antibodies for DLL4 was estimated using is both FACS and BIAcore techniques. […] The cells were then washed and incubated with goat anti-human IgG-Fc-Cy5+5 μg/mL 7-Amino-Actinomycin (7AAD) for 30 minutes at 4° C.
# In this equation, F=mean fluorescence, LT=total molecular mAb concentration, P′=proportionality constant that relates arbitrary fluorescence units to bound mAb, M=cellular concentration in molarity, n=number of receptors per cell, B=background signal, and KD=equilibrium dissociation constant. For each mAb titration curve an estimate for KD is obtained as P′, n, B, and KD are allowed to float freely in the nonlinear analysis. Table 20 summarizes the affinity estimates for the anti-DLL4 antibodies for human and cynomolgus monkey DLL4 derived using the methodology described above
# T1 sequence (Q9NR61 27-685): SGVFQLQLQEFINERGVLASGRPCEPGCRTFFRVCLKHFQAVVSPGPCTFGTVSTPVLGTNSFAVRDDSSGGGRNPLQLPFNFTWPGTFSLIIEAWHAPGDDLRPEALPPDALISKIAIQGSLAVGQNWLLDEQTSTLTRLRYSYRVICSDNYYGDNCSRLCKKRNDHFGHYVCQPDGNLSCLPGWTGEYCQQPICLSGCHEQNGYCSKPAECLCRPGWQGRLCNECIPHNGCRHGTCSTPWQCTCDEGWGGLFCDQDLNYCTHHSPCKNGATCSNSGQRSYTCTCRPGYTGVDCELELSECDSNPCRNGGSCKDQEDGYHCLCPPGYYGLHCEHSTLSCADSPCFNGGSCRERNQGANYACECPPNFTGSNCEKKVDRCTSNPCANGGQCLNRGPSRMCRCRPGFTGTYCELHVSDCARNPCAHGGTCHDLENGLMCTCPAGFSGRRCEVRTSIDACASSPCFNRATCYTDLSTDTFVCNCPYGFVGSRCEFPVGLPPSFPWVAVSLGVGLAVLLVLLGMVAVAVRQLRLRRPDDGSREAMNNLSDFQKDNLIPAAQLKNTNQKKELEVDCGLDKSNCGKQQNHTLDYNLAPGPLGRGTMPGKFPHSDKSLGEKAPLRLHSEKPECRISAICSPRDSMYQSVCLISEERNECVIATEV
# T2 sequence (Q9NR61 27-524 limits assumed): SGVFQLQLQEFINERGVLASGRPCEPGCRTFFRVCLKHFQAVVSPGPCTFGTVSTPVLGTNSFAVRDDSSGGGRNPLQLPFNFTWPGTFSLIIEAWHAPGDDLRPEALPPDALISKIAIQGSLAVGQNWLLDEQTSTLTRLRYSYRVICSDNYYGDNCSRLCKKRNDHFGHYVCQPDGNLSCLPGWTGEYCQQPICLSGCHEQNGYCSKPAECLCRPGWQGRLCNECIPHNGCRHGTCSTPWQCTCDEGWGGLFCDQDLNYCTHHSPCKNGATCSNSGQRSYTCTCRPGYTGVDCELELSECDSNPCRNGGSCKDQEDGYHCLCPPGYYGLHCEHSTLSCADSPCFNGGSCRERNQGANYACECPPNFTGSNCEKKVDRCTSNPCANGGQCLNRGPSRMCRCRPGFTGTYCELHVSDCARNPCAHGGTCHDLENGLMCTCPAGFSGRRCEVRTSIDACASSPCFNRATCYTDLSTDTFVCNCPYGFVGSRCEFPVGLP
Binder,EC50 (full length human DLL4 [1]) [µg/mL],IC50 (full length human DLL4 [2]) [µg/mL],Kd [3] [nM],koff [3] [s⁻¹],kon [3] [M⁻¹ s⁻¹],IC50 (full length human DLL4 [4]) [nM],Kd (full length human DLL4 [5]) [nM]
"2H10 IgG2 VH wt/VL wt (antibody, V domains shown, IgG2, transiently expressed) VH: QVQLVESGGGVVQPGRSLRLSCAASGFTFSRHGMHWVRQAPGKGLEWVAVVWFDGSNIYYADSVKGRFTISRDNSKNTLYLQMNSLRAEDTAMYYCARDSRIAAADYWGQGTLVTVSS VL: SYELTQPPSVSVSPGQTVSITCSGDKLGDKYVCWYQQKPGQSPVLVIYQESKRPSGIPERFSGSSSGNTATLTISGTQAMDEADYYCQTWDSSLVVFGGGTKLTVL",0.043,0.224,–,–,–,–,–
"2H10 IgG2 VH wt/VL C33S (antibody, V domains shown, IgG2) VH: QVQLVESGGGVVQPGRSLRLSCAASGFTFSRHGMHWVRQAPGKGLEWVAVVWFDGSNIYYADSVKGRFTISRDNSKNTLYLQMNSLRAEDTAMYYCARDSRIAAADYWGQGTLVTVSS VL: SYELTQPPSVSVSPGQTVSITCSGDKLGDKYVSWYQQKPGQSPVLVIYQESKRPSGIPERFSGSSSGNTATLTISGTQAMDEADYYCQTWDSSLVVFGGGTKLTVL",0.031,0.084,–,–,–,–,–
"4B4 IgG1 (antibody, V domains shown, Formatted as IgG1) VH: QVLLIQSGAEVKKPGASVQVSCKASGYTFTNYGVIWVRQAPGQGLEYMGWISAYNGNTNYAQKLQDRVTMTSDTSTTTAYMELRSLRSDDTAVYYCARELGSSFDYWGQGTLVTVSS VL: SYELTQPPSVSVSPGQTARITCSGDALPKKYAYWYQQKSGQAPVLVIYEDIKRPSGIPERFSGSSSGTMATLTISGAQVEDEADYYCFSTDNSGDHSVFGGGTKLTVL",–,–,0.17,2.01e-05,118000,0.85,0.157
"4B4 IgG2 (antibody, V domains shown, Formatted as IgG2) VH: QVLLIQSGAEVKKPGASVQVSCKASGYTFTNYGVIWVRQAPGQGLEYMGWISAYNGNTNYAQKLQDRVTMTSDTSTTTAYMELRSLRSDDTAVYYCARELGSSFDYWGQGTLVTVSS VL: SYELTQPPSVSVSPGQTARITCSGDALPKKYAYWYQQKSGQAPVLVIYEDIKRPSGIPERFSGSSSGTMATLTISGAQVEDEADYYCFSTDNSGDHSVFGGGTKLTVL",–,–,0.336,3.6e-05,107000,1.19,0.232
"9G8 IgG2 VH L38W/VL C33S (antibody, V domains shown, IgG2) VH: QLQLQESGPGLVKPSETLSLSCTVSGGSISSSSSYWGWIRQPPGKGLEWIGSIYYSGSTYYSPSLKSRVSISVDTSKNQFSLKLSSVTAADTAVYFCARQGYGGHPDVFDIWGQGTMVTVSS VL: SSELTQSPSVSVSPGQTARITCSGDKLGDVYVSWYQQKTGQSPVLVIYEDTKRPSGIPERFSGSNSGNTATLTISGTQVMDEADYYCQAWDSTTAVIFGGGTKLTVL",0.051,0.107,–,–,–,–,–
"9G8 IgG2 VH L38W/VL wt (antibody, V domains shown, IgG2) VH: QLQLQESGPGLVKPSETLSLSCTVSGGSISSSSSYWGWIRQPPGKGLEWIGSIYYSGSTYYSPSLKSRVSISVDTSKNQFSLKLSSVTAADTAVYFCARQGYGGHPDVFDIWGQGTMVTVSS VL: SSELTQSPSVSVSPGQTARITCSGDKLGDVYVCWYQQKTGQSPVLVIYEDTKRPSGIPERFSGSNSGNTATLTISGTQVMDEADYYCQAWDSTTAVIFGGGTKLTVL",0.07,0.133,–,–,–,–,–
"9G8 IgG2 VH L38W/VL S7P (antibody, V domains shown, IgG2) VH: QLQLQESGPGLVKPSETLSLSCTVSGGSISSSSSYWGWIRQPPGKGLEWIGSIYYSGSTYYSPSLKSRVSISVDTSKNQFSLKLSSVTAADTAVYFCARQGYGGHPDVFDIWGQGTMVTVSS VL: SSELTQPPSVSVSPGQTARITCSGDKLGDVYVCWYQQKTGQSPVLVIYEDTKRPSGIPERFSGSNSGNTATLTISGTQVMDEADYYCQAWDSTTAVIFGGGTKLTVL",0.074,0.155,–,–,–,–,–

# Further lines, results first:
EC50 (full length human DLL4 [1]) [µg/mL],IC50 (full length human DLL4 [2]) [µg/mL],Kd [3] [nM],koff [3] [s⁻¹],kon [3] [M⁻¹ s⁻¹],IC50 (full length human DLL4 [4]) [nM],Kd (full length human DLL4 [5]) [nM],Binder
0.095,0.211,–,–,–,–,–,"9G8 IgG2 VH wt/VL V79A (antibody, V domains shown, IgG2) VH: QLQLQESGPGLVKPSETLSLSCTVSGGSISSSSSYWGLIRQPPGKGLEWIGSIYYSGSTYYSPSLKSRVSISVDTSKNQFSLKLSSVTAADTAVYFCARQGYGGHPDVFDIWGQGTMVTVSS VL: SSELTQSPSVSVSPGQTARITCSGDKLGDVYVCWYQQKTGQSPVLVIYEDTKRPSGIPERFSGSNSGNTATLTISGTQAMDEADYYCQAWDSTTAVIFGGGTKLTVL"
0.067,0.136,–,–,–,–,–,"9G8 IgG2 VH wt/VL C33S (antibody, V domains shown, IgG2) VH: QLQLQESGPGLVKPSETLSLSCTVSGGSISSSSSYWGLIRQPPGKGLEWIGSIYYSGSTYYSPSLKSRVSISVDTSKNQFSLKLSSVTAADTAVYFCARQGYGGHPDVFDIWGQGTMVTVSS VL: SSELTQSPSVSVSPGQTARITCSGDKLGDVYVSWYQQKTGQSPVLVIYEDTKRPSGIPERFSGSNSGNTATLTISGTQVMDEADYYCQAWDSTTAVIFGGGTKLTVL"
0.082,0.181,–,–,–,–,–,"9G8 IgG2 VH wt/VL S7P (antibody, V domains shown, IgG2) VH: QLQLQESGPGLVKPSETLSLSCTVSGGSISSSSSYWGLIRQPPGKGLEWIGSIYYSGSTYYSPSLKSRVSISVDTSKNQFSLKLSSVTAADTAVYFCARQGYGGHPDVFDIWGQGTMVTVSS VL: SSELTQPPSVSVSPGQTARITCSGDKLGDVYVCWYQQKTGQSPVLVIYEDTKRPSGIPERFSGSNSGNTATLTISGTQVMDEADYYCQAWDSTTAVIFGGGTKLTVL"
–,–,0.594,0.000171,288000,0.57,0.103,"21H3 IgG1 (antibody, V domains shown, Formatted as IgG1) VH: QVQLVQSGAEVKKPGASVKVSCKASGYTFTNYGITWVRQAPGQGPEWMGWISAYNGNTNYAQKLQDRVTVTTDTSTSTAYMELRSLRSDDTAVYYCARDRVPRIPVTTEAFDIWGQGTMVTVSS VL: QSVLTQPPSASGTPGQRVTISCSGSSSNIGSYFVYWYQQLPGTAPKLLIYRNNQRPSGVPDRFSGSESGTSASLAISGLRSEDEADYYCAAWDDSLSGHWVFGGGTRLTVL"
